According to the supplement of paper PMC9170038:

Tested on: MS2 coat protein
Experiment: apparent KD of MS2 coat protein; higher = weaker reporter binding
Conditions: Eterna round: R107
How it was run: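 Apparent KD was obtained for each design as the median of normalised binding-curve fits over its clusters. RNA switches transcribed on-chip from Illumina sequencing clusters were titrated with SNAP-549-labelled MS2 coat protein (twofold steps, 0.7 or 1.5 nM to 3 µM) in 100 mM Tris-HCl pH 7.5, 80 mM KCl, 4 mM MgCl2, without or with constant ligand.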

[1] = input ligand: theophylline 20 uM
[2] = input ligand: tryptophan 2.4 mM
[3] = input ligand: theophylline 2 mM

Sequence | apparent KD of MS2 coat protein (input ligand: arginine 13.2 mM) [nM] | apparent KD of MS2 coat protein [1] [nM] | apparent KD of MS2 coat protein [2] [nM] | apparent KD of MS2 coat protein (input ligand: none) [nM] | apparent KD of MS2 coat protein [3] [nM]
AACAAUGCACAUGAGGAUCACCCAUGUGAUACCAGCCGCAACAUAGGCCCUUGGCAGCAUGUGGGUAUAGAACGAUUUGGCUGAA [Xeanle] | 24.4 | 85.3 | 41.7 |  | 
GGCCUAGCGAGCGCUCGCUAGGCCGCGGAUACCAGCGAGGUCCAUCGCCCUUGGCAGCCGAACAUGAGGAUCACCCAUGUCGGUA [#1 Same State - Theophylline A Attempt #15 (HarryS)] | 9.5 | 13.4 | 9.68 | 10.3 | 16.9
UCGGGCAGAGCGGCCGCCACUGUUUGGCGUGCGGAUGAAGGAACAUGAGGAUCACCCAUGUAGAUUAGGACCGGGCUUGCGGAGA [ddrmullin] | 8.61 | 18.1 | 15.9 | 13.8 | 15
UGGUACAUGAGGAUCACCCAUGUUCCAGAUACCAGAUACCCGGUUAUCCCUUGGCAGCUGGUGGUACAUGAGGAUCACCCAUGUG [Exclusion Theophylline A GF15] | 32.9 | 58.9 | 44 |  | 
AACAUACAAUUUUAGGUGGAUAUAAGGCGGCGAGGACCGGUACGGCCGCCACUCGCGUACAUGAGGAUCACCCAUGUCUGAAGCU [Same State - Tryptophan A (Freestyle 6)] | 12.8 | 21.7 | 21.4 | 21.7 | 27.3
UAUAUAUAUCACUAACUGUUCUUGAGGUCUCGAGGACCGGUACGGCCGCCACUCGUGCCGCCUCACAUGAGGAUCACCCAUGUCC [XTryp A #2] | 55.3 | 79.4 |  |  | 81.6
UAAACUACACAUGAGGAUCACCCAUGUGGCCGAGGACCGGUACGGCCGCCACUCGUGUGUUAAUAAAAGAACUGCAAGGUUCUUC [Uslausce] | 76.1 | 325 |  |  | 748
GAUAACAUGAGGAUCACCCAUGUGGCGUCGCGAGGACCGGUACGGCCGCCACUCGGCAGUUCAACUCGAAUAUAGUGAUCGAAGU [theeternabot_sameState_MS2_Trp_A_16] | 47.6 | 182 |  |  | 223
UGUAUGUGAUCUGAUACCAGACGUGUAAACCUGAGGAUCACCCUGGUAAGGCGAAAGCCAGUCCCUUGGCAGCAGAUCGCAUACU | 47.7 | 40 | 50 | 49 | 21.5
AGAAGUCCAGACUACACGUGGAAAAGCGAUACCAGACUCAUAGGUGUCCCUUGGCAGCGCGUAACAUGAGGAUCACCCAUGUGAU [theeternabot_exclusion_MS2_Theo_A_9] | 66.8 | 190 | 133 |  | 
UCGACGAUGACCAAAGGUCAGGAGUACGUACGAGGACCGGUACGGCCGCCACUCGAGGAGUGGGACAUGAGGAUCACCCAUGUGG [#20 Exclusion Tryptophan A] | 16.6 | 51.4 | 37.4 | 38.2 | 43.7
GCUUCACAUGAGGAUCACCCAUGUCCGGAUACCAGCUCUCCAGACAGCCCUUGGCAGCCGAGCGCCCGAUUAUAUACCCUAGGAG [theeternabot_sameState_MS2_Theo_A_28] | 21.1 | 53.7 | 27.9 |  | 
UUAAUCUAUAAUGAAAACAUUAUAGCAGAAGGAGCGUGAUAAAACACAGGUAGGUCGCUGAAGGGAACAUGAGGAUCACCCAUGU [AstrosSSArgA#12] | 24.3 | 40.5 | 23.6 | 28.7 | 39.4
